Measured values taken from patent US7195897B2, “Feedback-resistant homoserine transsuccinylases having a modified c-terminus” (priority 2002, dated 2007).
Where two headings read alike, the source gives them in different places.

Legend:
[1] = target: T1, E. coli homoserine transsuccinylase (MetA), wild type, SEQ ID NO: 2 (plasmid pKP413GAP) (Escherichia coli, UniProt P07623); assay: biochemical; conditions: pH 7.6, read-out: Activity (%) in the presence of 1 mM L-methionine
[2] = target: T1, E. coli homoserine transsuccinylase (MetA), wild type, SEQ ID NO: 2 (plasmid pKP413GAP); conditions: pH 7.5, read-out: Activity (%) in the presence of 1 mM SAM
[3] = system: homoserine transsuccinylase; assay: Homoserine transsuccinylase activity test (Lee et al., 5,5'-dithiobis(2-nitrobenzoic acid), 412 nm), activity and inhibition by SAM; format: biochemical, E. coli; conditions: cell extract; 3 mM homoserine, 0.3 mM succinyl-CoA, 50 mM potassium phosphate buffer pH 7.5
[4] = system: homoserine transsuccinylase; conditions: cell extract of E. coli W3110 transformant; 1 mM homoserine, 0.1 mM succinyl-CoA, 50 mM Tris/Cl pH 7.6

CSCC[C@H](N)C(=O)O [L-methionine]
activity at 1000 µM [1]: 2%

C[S+](CC[C@H](N)C(=O)[O-])C[C@H]1O[C@@H](n2cnc3c(N)ncnc32)[C@H](O)[C@@H]1O (some centres unmarked) [SAM, S-Adenosylmethionine]
activity at 1000 µM [2]: 0.5%

pBaBmetAext2: MetA variant with altered, extended carboxy-terminus from amino acid 297 onwards (SEQ ID No. 12) (SYIHQYLLVNNSTELWMHTRLIKRPHCDEWQGGA)
Activity (U/mg) [3]: 0.173 U/mg
Activity (U/mg) [4]: 0.045 U/mg

pBaBmetAext: MetA variant with altered, extended carboxy-terminus from amino acid 297 onwards (SEQ ID No. 10) (SYIHHYLLVNNSTELWMHTRLIKRPHCDEWQGGA)
Activity (U/mg) [3]: 0.082 U/mg
Activity (U/mg) [4]: 0.011 U/mg

B1: pKP413GAP: E. coli wild-type homoserine transsuccinylase (MetA, SEQ ID No. 2) expressed from starting plasmid pKP413GAP under the GAPDH promoter (protein, listed as Escherichia coli)
chain: MPIRVPDELPAVNFLREENVFVMTTSRASGQEIRPLKVLILNLMPKKIETENQFLRLLSNSPLQVDIQLLRIDSRESRNTPAEHLNNFYCNFEDIQDQNFDGLIVTGAPLGLVEFNDVAYWPQIKQVLEWSKDHVTSTLFVCWAVQAALNILYGIPKQTRTEKLSGVYEHHILHPHALLTRGFDDSFLAPHSRYADFPAALIRDYTDLEILAETEEGDAYLFASKDKRIAFVTGHPEYDAQTLAQEFFRDVEAGLDPDVPYNYFPHNDPQNTPRASWRSHGNLLFTNWLNYYVYQITPYDLRHMNPTLD
Activity (U/mg) [3]: 0.62 U/mg
Activity (U/mg) [4]: 0.155 U/mg
